Target: T1, long isoform of the mouse leptin receptor (Mus musculus, UniProt P48356)
T1 construct: expressed in transfected cells; host or cells: PC12 (rat pheochromocytoma), transient electroporation with pMET7-mLRlo
T1 sequence (P48356 22-1162): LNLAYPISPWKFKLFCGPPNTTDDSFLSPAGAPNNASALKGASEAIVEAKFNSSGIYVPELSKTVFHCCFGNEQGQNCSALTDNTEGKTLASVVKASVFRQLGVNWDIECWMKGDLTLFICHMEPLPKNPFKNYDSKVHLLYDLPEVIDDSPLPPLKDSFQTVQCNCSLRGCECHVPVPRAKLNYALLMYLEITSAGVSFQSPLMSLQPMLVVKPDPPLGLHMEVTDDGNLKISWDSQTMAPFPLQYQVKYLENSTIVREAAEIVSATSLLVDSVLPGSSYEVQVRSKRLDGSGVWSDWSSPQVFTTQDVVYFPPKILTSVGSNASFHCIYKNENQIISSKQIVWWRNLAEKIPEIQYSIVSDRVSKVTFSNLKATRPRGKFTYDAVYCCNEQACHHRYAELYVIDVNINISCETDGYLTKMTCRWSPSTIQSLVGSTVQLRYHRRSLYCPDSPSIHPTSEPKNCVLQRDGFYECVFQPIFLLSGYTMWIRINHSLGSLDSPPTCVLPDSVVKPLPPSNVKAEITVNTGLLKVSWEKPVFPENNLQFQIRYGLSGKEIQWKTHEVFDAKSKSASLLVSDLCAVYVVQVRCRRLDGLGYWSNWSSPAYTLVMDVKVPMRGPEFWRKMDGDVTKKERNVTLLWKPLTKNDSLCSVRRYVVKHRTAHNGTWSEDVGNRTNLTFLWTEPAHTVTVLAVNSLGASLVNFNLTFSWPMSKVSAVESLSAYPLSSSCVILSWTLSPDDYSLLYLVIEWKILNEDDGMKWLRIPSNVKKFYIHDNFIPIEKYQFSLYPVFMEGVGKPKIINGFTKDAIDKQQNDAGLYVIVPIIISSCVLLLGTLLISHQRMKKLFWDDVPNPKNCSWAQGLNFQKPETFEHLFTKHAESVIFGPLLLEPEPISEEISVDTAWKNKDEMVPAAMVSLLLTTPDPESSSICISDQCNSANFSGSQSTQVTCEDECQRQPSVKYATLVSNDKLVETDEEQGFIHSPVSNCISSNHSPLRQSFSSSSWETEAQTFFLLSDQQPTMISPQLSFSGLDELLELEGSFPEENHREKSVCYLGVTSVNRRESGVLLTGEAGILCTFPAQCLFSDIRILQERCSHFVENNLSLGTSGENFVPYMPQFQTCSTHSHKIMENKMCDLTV
Assay: rNPY promoter luciferase reporter in PC12 cells transiently transfected with pMET7-mLRlo
Type: cell-based
Protocol: FIG. 1A. Leptin-induced NPY promoter activity in transiently transfected PC12 cells. PC12 cells were co-transfected with control vector (columns 1 and 2), pMET7-mLRsh (columns 3 and 4) or pMET7-mLRlo (columns 5 and 6) together with the pGL3-rNPYluc reporter. The different subcultures were mock stimulated (growth medium alone) or treated with mouse leptin (100 ng/ml) for 72 hours. Luciferase activity in cell lysates is shown; data represent the mean±standard deviation values of assays performed in triplicate.
FIG. 1B. Forskolin co-stimulation on leptin-induced pGL3-rNPY luciferase activity. PC12 cells were transiently co-transfected with pMET7-mLRlo and the pGL3-rNPYluc reporter. […]
In order to study leptin receptor signaling in a neuro-endocrine-related cell type, we transiently transfected PC12 cells with expression vectors for the long or the short isoform of the mouse leptin receptor (pMET7-mLRlo and pMET7-mLRsh respectively) and monitored gene induction by leptin. […]
Luciferase activity was measured in transfected cells by chemiluminescence. […] 70 μl of luciferase substrate buffer (20 mM Tricine; 1.07 mM (MgCO3)4Mg(OH)25H2O; 2.67 mM MgSO4; 0.1 mM EDTA; 33.3 mM DTT; 270 μM Coenzyme A (lithium salt); 470 μM Luciferin (Duchefa); 530 μM ATP, final pH 7.8) was added to 100 μl of cell lysate and measured for 5 seconds by TopCount.NXT Chemiluminescence Counter (Packard).

luciferase activity, rNPY reporter (PC12 cells co-transfected with pGL3-rNPYluc and pMET7-mLRlo, leptin alone): moderate stimulation | optimal co-stimulatory concentration (leptin plus forskolin, rNPY luciferase): 100 ng/mL
B1: leptin: mouse leptin (R&D Systems), ob gene product, used on PC12 cells at 100 ng/ml (protein)
chain: VPIQKVQDDTKTLIKTIVTRINDISHTQSVSAKQRVTGLDFIPGLHPILSLSKMDQTLAVYQQVLTSLPSQNVLQIANDLENLRDLLHLLAFSKSCSLPQTSGLQKPESLDGVLEASLYSTEVVALSRLQGSLQDILQQLDVSPEC

— US7291458B2, “Leptin-mediated gene-induction” (Vlaams Interuniversitair Instituut Voor Biotechnologie VZW, priority 1998, dated 2007)
